Where two headings read alike, the source gives them in different places. Bridges are numbered along the chain shown (N, C = ends). Roman numbers before positions name the chains, in order. Where no end group is shown, it is not given here. [ ]: non-standard residue; d: D form.

13 molecules from patent US20140323392A1 (UNIVERSITY OF UTAH RESEARCH FOUNDATION, published 2014) can be followed below.

What all share (experiment): cell-based or functional assay
In experiment [1] the target is T1, HIV-1 HXB2 envelope glycoprotein gp41 (N-trimer of the prehairpin intermediate) (HIV-1 strain HXB2, UniProt P04578 512-856).
Experiment [2] has as its target T1, HIV-1 HXB2 envelope glycoprotein gp41 …. This is another data set of the same source.
Experiment [3] concerns the target T2, HIV-1 HXB2 envelope glycoprotein gp41 with resistance mutations E560K/V570I (HIV-1 strain HXB2, UniProt P04578 33-856).
The target in experiment [4] is T3, HIV-1 HXB2 envelope glycoprotein gp41 with resistance mutation Q577R (HIV-1 strain HXB2, UniProt P04578 33-856).
Experiment [5] concerns the target T1, HIV-1 HXB2 envelope glycoprotein gp41 …. The source holds these as a separate data set.
Experiment [6] has the same target. This is another data set of the same source.
Experiment [7] deals with T4, HIV-1 JRFL envelope glycoprotein gp41 (N-trimer of the prehairpin intermediate) (HIV-1 strain JRFL).
Experiment [8] has as its target T4, HIV-1 JRFL envelope glycoprotein gp41 …. The source holds these as a separate data set.
For experiment [9] the target is unchanged. The source holds these as a separate data set.
Experiment [10] deals with T1, HIV-1 HXB2 envelope glycoprotein gp41 …. The source holds these as a separate data set.
The target in experiment [11] is T2, HIV-1 HXB2 envelope glycoprotein gp41 …. This is another data set of the same source.
The target in experiment [12] is T3, HIV-1 HXB2 envelope glycoprotein gp41 …. The source holds these as a separate data set.

B1: PEG5-ΔHP-PIE12-trimer (peptide)
peptide: [dC][dD][dY][dP][dE][dW][dQ][dW][dL][dC][dE][dL]GK
modifications: disulfide 1-10 (inferred); not fully specified (residue 14); also: homotrimer on trimethylolethane-triNHS ester scaffold
B1: the “IC50, HXB2 pseudovirion entry” value in experiment [1] came out at 380 nM.
On to Ac-[dH][dP][dC][dD][dY][dP][dE][dW][dQ][dW][dL][dC][dE][dL]GK-NH2 (disulfide 3-12 (inferred); not fully specified (residue 16)) [Chol-PEG2-PIE12 (monomer)], for which the “IC50, HXB2 pseudovirion entry” value in experiment [2] came to 58 nM; in experiment [1], 69 nM.

B2: PEG4-ΔHP-PIE12-trimer (peptide)
peptide: [dC][dD][dY][dP][dE][dW][dQ][dW][dL][dC][dE][dL]GK
modifications: disulfide 1-10 (inferred); not fully specified (residue 14); also: homotrimer on trimethylolethane-triNHS ester scaffold
In the case of B2, in experiment [1], the “IC50, HXB2 pseudovirion entry” value is 300 nM.

B3: Chol-PEG36-PIE12-trimer (peptide)
peptide: Ac-[dH][dP][dC][dD][dY][dP][dE][dW][dQ][dW][dL][dC][dE][dL]GK-NH2
modifications: disulfide 3-12 (inferred); not fully specified (residue 16); also: trimer on scaffold via PEG4, fourth arm PEG36 (PEG24 + PEG12 through D-Cys) carrying thiocholesterol
As to B3, the “IC50, HXB2 pseudovirion entry” value in experiment [2] came out at 0.0054 nM. For the same molecule, in experiment [3], the “IC50, E560K/V570I HXB2 pseudovirion entry” value was 0.0045 nM. Moreover, in experiment [4], the “IC50, Q577R HXB2 pseudovirion entry” value came out at 2.7 nM.
For Ac-[dH][dP][dC][dD][dY][dP][dE][dW][dQ][dW][dL][dC][dE][dL]GK-NH2 (disulfide 3-12 (inferred); not fully specified (residue 16)) [Chol-PEG24-PIE12 (monomer)], the “IC50, HXB2 pseudovirion entry” value in experiment [2] was 0.4 nM; in [1], 0.64 nM.
Consider Ac-[dK]G[dA][dC][dD][dY][dP][dE][dW][dR][dW][dL][dC][dA][dA][dA]-NH2 (disulfide 4-13 (inferred); also: dimer, Lys crosslinked by PEG) [PEG-(PIE2-AAA)2], for which, in experiment [5], the “IC50, pseudovirion entry” value was found to be 21 nM and the “fold improvement of IC50 over the corresponding monomer” value is roughly 70 fold.

B4: N9N(PIE7)2 (peptide)
peptide: Ac-[dK]G[dA][dC][dD][dY][dP][dE][dW][dQ][dW][dL][dC][dA][dA]-NH2
modifications: disulfide 4-13 (inferred); also: dimer, N- to N-terminal Lys crosslinked by Bis-dPEG9 NHS ester
With B4, the “fold improvement of IC50 over the corresponding monomer” value in experiment [5] was roughly 325 fold. In [6], the “IC50, HXB2 pseudovirion entry” value is 1.9 nM. In experiment [7], the “IC50, JRFL pseudovirion entry” value is 2300 nM.
For Ac-[dH][dP][dC][dD][dY][dP][dE][dW][dQ][dW][dL][dC][dE][dL]GK-NH2 (disulfide 3-12 (inferred); not fully specified (residue 16)) [Chol-PEG12-PIE12 (monomer)], the “IC50, HXB2 pseudovirion entry” value in [2] amounted to 11 nM; in experiment [1], 12 nM. The “IC50, JRFL pseudovirion entry” value in experiment [8] was 200 nM.

B5: C5C-PIE12-trimer (peptide)
peptide 1: Ac-[dH][dP][dC][dD][dY][dP][dE][dW][dQ][dW][dL][dC][dE][dL]G[dK]-NH2
peptide 2: Ac-[dH][dP][dC][dD][dY][dP][dE][dW][dQ][dW][dL][dC][dE][dL]G[dK][dK]-NH2
modifications: disulfide I:3-I:12, II:3-II:12 (inferred); also: trimer: C-terminal Lys linked by PEG5 spacers
Turning to B5, the “IC50, JRFL pseudovirion entry” value in experiment [7] and in experiment [8] was 2.8 nM each time. In addition, the “IC50, HXB2 pseudovirion entry” value in experiment [2] was 0.33 nM. Further, in experiment [3], the “IC50, E560K/V570I HXB2 pseudovirion entry” value was found to be 0.84 nM. Besides, the “IC50, Q577R HXB2 pseudovirion entry” value in [4] was determined as 2960 nM.
On to Ac-[dH][dP][dC][dD][dY][dP][dE][dW][dQ][dW][dL][dC][dE][dL]G[dK]-NH2 (disulfide 3-12 (inferred)) [PIE12], for which the results for the “IC50, JRFL pseudovirion entry” value in experiment [7] and in experiment [8] were 578 nM and 580 nM, respectively.

B6: PIE7-GK short claw (peptide)
peptide: Ac-G[dA][dC][dD][dY][dP][dE][dW][dQ][dW][dL][dC][dA][dA]G[dK]-NH2
modifications: disulfide 3-12 (inferred); also: linked directly to trifunctional crosslinker TSAT
On to B6, for which the “IC50, HXB2 pseudovirion entry” value in experiment [6] is 0.23 nM. The “IC50, JRFL pseudovirion entry” value in experiment [7] was determined as 86.6 nM.

B7: PEG4-PIE12-trimer (peptide)
peptide: Ac-[dH][dP][dC][dD][dY][dP][dE][dW][dQ][dW][dL][dC][dE][dL]GK-NH2
modifications: disulfide 3-12 (inferred); not fully specified (residue 16); also: homotrimer on trimethylolethane-triNHS ester scaffold
On to B7, for which the “IC50, HXB2 pseudovirion entry” value in experiment [1] was 0.72 nM. Further, the “IC50, JRFL pseudovirion entry” value in experiment [9] came out at 2.1 nM. Besides, the “IC50, antiviral potency, WT HXB2” value in experiment [10] was 0.72 nM. The “IC50, antiviral potency, E560K/V570I (HXB2 background)” value in experiment [11] is 0.89 nM. For the same molecule, in [12], the “IC50, antiviral potency, Q577R (HXB2 background)” value was greater than 3000 nM.
[dC][dD][dY][dP][dE][dW][dQ][dW][dL][dC][dE][dL]G[dK] (disulfide 1-10 (inferred)) [ΔHP-PIE12]: the “fold loss of potency against PIE12” value in [5] turned out to be 84 fold. In [1], the “IC50, HXB2 pseudovirion entry” value came to 3100 nM.
